{"source": "the DeepSol protein solubility set"}
{"experiment": "soluble on expression in E. coli; label from the status in PepcDB or PDB records"}
{"sequence": "MSSKIFCKSWGAEYIAADVVRFRLWATGQQKVMLRLAGKDQEMQANGDGWFTLDVAGVTPGTEYNFVLSDGMVVPDPASRAQKTDVNGPSYVVDPGSYTWRNTGWKGSRWEQAVVYEMHTGTFTPEGTFRAAIAKLPYLAELGVTVIEVMPVAQFGGERGWGYDGVLLYAPHSAYGTPDDFKAFIDAAHGYGLSVVLDIVLNHFGPEGNYLPLLAPAFFHKERMTPWGNGIAYDVDAVRRYIIEAPLYWLTEYHLDGLRFDAIDQIEDSSARHVLVEIAQRIREDITDRPIHLTTEDSRNIISLHPRDQDGNAPLFTAEWNDDFHNAVHVFATGETQAYYNDFADAPEKHLARALAEGFAYQGEISPQTGEPRGVKSTGQPPVAFVDFIQNHDQVGNRAQGDRLITLAGAERTKVLLATLLLSPHIPLLFMGEEYGESRPFLFFTDFHGDLARAVREGRAKEFADHAGENVPDPNAPETFQRSKLNWKQQHSEEGKAWLAFTRELLLLRQKHIVPLLSAARESSGTVLQTAPGFIAVSWRFPGGTLSLALNISATTVLLPDLPGKTLFAWPNESTGSLSQHSLIVRLAQGESAS", "soluble on expression in E. coli": "not soluble"}
{"sequence": "MTAKMETTFYDDALNASFLPSESGPYGYSNPKILKQSMTLNLADPVGSLKPHLRAKNSDLLTSPDVGLLKLASPELERLIIQSSNGHITTTPTPTQFLCPKNVTDEQEGFAEGFVRALAELHSQNTLPSVTSAAQPVNGAGMVAPAVASVAGGSGSGGFSASLHSEPPVYANLSNFNPGALSSGGGAPSYGAAGLAFPAQPQQQQQPPHHLPQQMPVQHPRLQALKEEPQTVPEMPGETPPLSPIDMESQERIKAERKRMRNRIAASKCRKRKLERIARLEEKVKTLKAQNSELASTANMLREQVAQLKQKVMNHVNSGCQLMLTQQLQTF", "soluble on expression in E. coli": "soluble"}
{"sequence": "MSLGDSEIYVSLDIGTASVKVIIAEMADDRLNIIGVGNVESSGIKKGIIIDIHKTVESIKKAIEQAERMVGVEISQVIVGVVSSQVHLEACRGIVAVGSENREITDEDVWNVMDAAQVVPLSPEREIINTIPDQFVVDGLTGITDPRGMIGVRLEMEGTLITGSKTILHNTLRCVERAGLEISDIALQPLAEASISLSEDDKEFGTALVNVGAGTTTVSVFEQGRLTYTGVIPVGGDNITKDLSLGLNTSTANADRVKLDHGYAFYDDASPDEVFAIDVIGSDQKQHFTQVEVADIIEARMEEIFQLVVEELTRVGKTHLPGGYVLTGGSMAIPGAIDLAGKTLAAHVRLAIPDYIGVREPSFTTAVGLIKYAYQMVELEGRDVSSEGHHHHHH", "soluble on expression in E. coli": "soluble"}
{"sequence": "MSLWRSTVARAPLDARERKNLVAHVQSAQAHESAQHAELAKLRASVNVMKAAEATPRNDEAGQDSAMIPMAGPGVRIILDDANAAPADELGDKDMRKLVNAVWQSGAEAVAINGHRIGPRTAIRSAGSAITVDYVSLSRPYVVEAIGSPQKLPAELADTPGGRWMTYLRDNSSITYQVTTKDRVSVPGSKASVSHARPHREGHHHHHH", "soluble on expression in E. coli": "soluble"}
{"sequence": "GASLAPLRRMREVAARVSANSLTTRLDASRMPEELRGLAGELNAMLARLEEAFQRLSAFSADIAHELRTPLTSLLTQTQVVLSRPRSLEDYREALHGNLEELERLTAMVNDMLLLAKADHGLLAPSRQALDLGAEVDSLLEFYQPLAEDRDIRLLREGSLSLPGDRGMLRRVLANLLDNALRFTADGGEIRIRLGDRRLSVENQGPAIPPERLPRLFDRFYRADPARREGQGEHAGLGLAICRSIVQAHGGEIRCESADGWTRFVIDFAR", "soluble on expression in E. coli": "not soluble"}
{"sequence": "MKYRSVFDIIGPVMIGPSSSHTAGAARMGQVARQLFRHEPERVSISLYGSFAKTYRGHGTDVALIGGILGFETDDLRIPEALEIAKEREIEVEFIEEDANAPHPNTARIRLYKGEEEIEVVACSIGGGKIEVVELNGFDLQLSGTSPALLIVNNDRFGAIAAVASILAKHEINISTMSVSRKEKGRRALMVIETDEILADEVIEEIKAQQNICQVTIME", "soluble on expression in E. coli": "not soluble"}
{"sequence": "MLPIIYSLRNCPYAMRARLAIFKAKQAVLLRDLVLSHKPAEMIAVSPKGTVPVLVLANSTVIEESLEVMLWALQQTDPDDLLHCQQEGALPEMLSLINEFDNGFKTSLEAYKCAKRYQEDNIAQCRVVCQQYIEQLEQRLTEHMFLMSDKESLADIALVPFIRQFARVERQWYLQSPYPRVRRWLNSYLQSPVFTKVMAKHPLWLDNQQDILFGVN", "soluble on expression in E. coli": "not soluble"}
{"sequence": "MDYFDRCYIINLPERRDRRREMEKELERAGMPPMPGRVEFFPAIRPESAGPFPSIGAHGCFLSHLGILRAAKAQGLRNVLILEDDLTFAAQFPEVEEKLVGELRETPWDFAFFGHVLEFPEVPPDRAHLEPYAGPIVTAHFYAVNGAVIDRLLGFLDALLQRPPGHPDGGPMHVDGAYSTFRQQNPDVVTLVAVPSQGWQRSSRSDIAPNRWYDRWPLVRSLVALARRGKTWLRGNRRHAAALEHHHHHH", "soluble on expression in E. coli": "not soluble"}
{"sequence": "MRSIFLLHFDYKTCEEEDFEDWNLADGKCLNGAKYMYKRRKQDARCLVKRTFKDMILHEIPCDSCTESDYECSSEFVRDAKGDCIPDYDQIALSDICDKANGETVSLEPLQLIKGDKCKKPMEIEAMNIPCEKILRESSNGKKIATIENKFDFEI", "soluble on expression in E. coli": "not soluble"}
{"sequence": "MSGDFDTIRDASSPDEVQLVRLLEEKIKSLQIEIENLRKELNYYKAEMEKMLSPPLIEAVVLDVLPDGRVLVRSSSGPNLVVNIASHIDQKLIKPGISVALNQRGSTILEVLPQKE", "soluble on expression in E. coli": "soluble"}
{"sequence": "MGKTKPVLQCTLCGALVDSGNGLPMHEETYAVLRVEAMPRQWRQALENVMAKTIASPPPSAMPGTDPLEAVWFTPWRTNSWQPNTVDCRQVLNGTLDELRVLSQEVAALAATQGFSACVEFV", "soluble on expression in E. coli": "not soluble"}
{"sequence": "TTFENKKVLVLGLARSGEAAARLLAKLGAIVTVNDGKPFDENPTAQSLLEEGIKVVCGSHPLELLDEDFCYMIKNPGIPYNNPMVKKALEKQIPVL", "soluble on expression in E. coli": "not soluble"}
{"sequence": "MAHHHHHHMPPSNVRKEEAELRQIAKQARLARKEVQQRERKQRQRERRAAAKNGEAATAAQQTAASSAMRTRGAIILPDEVQELRQRLMGDDAASAASAADSPARKTKKAAARKAARSPAKKSAGAAGASNHGAASSSTLVPTYHQEVHFKKKMFFVDVVLHHVPHQKIDISETNTNRLVVDTCGHTKKYRLVLPYPKGMLCDAAAATYEFENGILQCRLPIMDGAIPASLEAENAKMIEKMRQQRALRFRVTRDGDLTVRTRQALLTQAPAAQAALPEAKKAAAAQRGDDTDSDNEVVNAQAREAKGTEKMASPKSRKRTRDGDEEDSKETPQQTRSVSAKKAKGAAAAVNTLPTEAATASKPAAKKSKPDVFEAEHAKVMEAAKAAAAKVHLSMRERVKLAKAVQASREERLQTRSLRKERKEEQKQQSFHRILEEQKRQLLARASMQQPAPSPTAKVNASAKAVHFADE", "soluble on expression in E. coli": "soluble"}
{"sequence": "MDGCYGISDSVGMITQPYRLYVERTDCKKNMARYYAMEITTTLFGDACLTRSWGRIGKRGQSKMHHFEREEEAVDLFLTLTRQKRSRGYRPATGRDRGLEHHHHHH", "soluble on expression in E. coli": "not soluble"}
{"sequence": "MSLSWADKYRPKNIDDVILNSEIRKQITEWIESWKEGIPKKRSLILYGSQGTGKTTTAYAIAGTFGVPVVEMNASDQRNRDSMRGTALMASLYGDLFVESAKRPSKVILIDEADNMFERGGDTGGIYELSKIIKNSANPIVITMNDIFEFRKKNYASDVISASLTIEMKQYGRKLDKNYNEFRRNIKARLIFILKNEGYTLPDQVVDRIIDRNMPDIRSMINDLEASAVSGTNISDEGHHHHHH", "soluble on expression in E. coli": "soluble"}
{"sequence": "SLGWIKRLIRMVFQQVGVSMQSVLWSRKPYGSSRSIVRKIGTNLSLIQCPRVQFQINSHATEWSPSHPGEDAVASFADVGWVAKEEGECSARLRTEVRSRPPLQDDLLFFEKAPSRQISLPDLSQEEPQLKTPARANEEALQKICALENELAALRAQIAKIVTQQEQQNLTAGDLDSTTFGTIPPHPPPPPPPLPPPALGLHQSTSAVDLIKERREKRANAGKTLVKNNPKKPEMPNMLEILKEMNSVKLRSVKRSEQDVKPKPVDATDPAALIAEALKKKFAYRYRSDSQDEVEKGIPKSESEATSERVLFGPHMLKPTGKMKALIENVSDS", "soluble on expression in E. coli": "not soluble"}
{"sequence": "MGSDKIHHHHHHVNIQEQFLGSGSRGSYELHLVDRRPKDVLEQAEALPFWKQDYTQLDKGAFSGAVTSVSCQGIQIFREKMNRAVDQLASAPADTYVIGLPTMIEGEATWGMLPVKQDSLITLNKNTELLFRTSHCSEIAAAVISAQRLEEYAALVEWVDLREIMRKVKAVEQISSTIANRLMTSLVGGTRYISDVHESASVKHMWPNFEEDLMSTCLQALVQAKDSINHHYDHRIHRYIVNRVRDFTLLNSCCPLTISELCIELRVSRRTLNHAFLRVLGITPVAYMRNVRLHRVRAELQSAPDSVTSIANVATKWGFWHMSLFSRYYRELFGECPNKTLERTRLHKA", "soluble on expression in E. coli": "not soluble"}
{"sequence": "MGSDKIHHHHHHMGMNQISQDQIGQARILVVGDMMLDRYWFGDVERISPEAPVPVVQIKRSDERLGGAANVARNSAALGAQVGMLGVVGDDEPGRTIESLLSACKVQPYLHRDASVNTTIKLRVLAHQQQLLRVDFENPPTHEVLLSVLEGFQELVKQYEVLVLSDYGKGGLTHVGRMVEAGRAAGRMVLVDPKGDDYSRYRGATLITPNRAEIRRVVGAWKSEQDLTARAQNLRRDLQLEALLLTRSEEGMTLYTEAEVLHVSAQAREVYDVSGAGDTVIATLATMLAAGVSLKQAVQFANRAGGIVVGKLGTAVVSYPELFGAAG", "soluble on expression in E. coli": "not soluble"}
{"sequence": "MNEKNRQLPAFTPRNRRTHPISAERKQLGVDDIVDHCMIYVDGRAIQGWFDYGSGLKRVKDFIASGHKAFMWLSLEEPSEQHMMQVADDLHIHELIVEDAVTAHQRPKVERYDDQIFMVVRSVFYRDHETVDDANEIIKTGEVQMLIGEHFIITIRHRTPMPDLTMRLDDPQEISSYGPMIIAWAWADYLVDGYLRIVNILAEEVDELEEEVFTPGSSFNIEHIYMIKREILEMRHAIDPLAPALRMLVTQHKDMIAKQLRSYLRDVLDHEMVAKDYVANFDERLSSLIDAGVAKISLQQNSDMRAIS", "soluble on expression in E. coli": "not soluble"}
{"sequence": "MGSDKIHHHHHHYATVEPLHINRFDKDLFRLIDTGDTTLQPELIKQYPEMLDIIGKGILNLQTIETPGFFEKMRNYYSEPTLKGLYRDAITQYDSVEDIEKSLGYGFAYLKENFPSMQIPAIYMHVSGFNQNVLVGDSLLSLSIDKYMGKDYPLYQDFFYDSQKLKMQRGLVVPDYLAGWLMSEYPFAGKENVLLDRMIYEGKIKYLLSQALGVPDAAELMGYTEQAYNWCKDNEGTIWKAIIERKHLYTPDQLTTSQYFEDTPTIFPGNDAPGNIGTWIGWQIINQYIKETGSTPEALMQNNDAQEILTASKYKPL", "soluble on expression in E. coli": "not soluble"}
{"sequence": "MVEEQLSLSGVEEIAPKIETPKIEKRTVKERRQQVLTVLIHMLHSERGMERMTTARLAKEVGVSEAALYRYFPSKTKMFEALIEHIESTLLSRITASMRNETQTMNRIHDILQTILDFARKNPGLTRVLTGHALMFEEAQLQARVAQFFDRLEMQFVNILQMRKLREGRAFNVDERIIASHLVTLCEGQFMRYVRTNFRLNSSQSFEQQWRFIEPLFA", "soluble on expression in E. coli": "not soluble"}
{"sequence": "MTLKTSVLALLLDNVHVLLIANPESTTQTQKLFRRVVPALMALDGVSLEARFTHYGGHAEEMVAGLTVDDFDVIIPAGGDGTVNEVINGLLGSAEGDFRNLEDLPAIAVLPTGSANVFARALGYPTDPYAAADALVELIRKNHTRTITLGTWKGDDQGTRWFAVNAGFGIDADVIARVERARSFGFAASPLLYLQVSLRAWVKTQIKPPKITVEAVDSKGHKLQKEEVPMLLASNTNPWTFLGPLPVVTNPQNSFDTGLGLFGLTSVRGFGGVAAMMHLIGVGHGRKLEKLIAKRTIAFDDAEKVTLTCDSDQRFQVDGEYEGKPTKVVLESITDAVRVYAPKTHPTPPIMNWAVHLFKHVRDFLRVRTFGI", "soluble on expression in E. coli": "not soluble"}
